Changes are numbered by the printed parent chain. Names may count otherwise.
T1: PUF4 RNA-binding domain (Saccharomyces cerevisiae, UniProt P25339 537-888)
T1 sequence: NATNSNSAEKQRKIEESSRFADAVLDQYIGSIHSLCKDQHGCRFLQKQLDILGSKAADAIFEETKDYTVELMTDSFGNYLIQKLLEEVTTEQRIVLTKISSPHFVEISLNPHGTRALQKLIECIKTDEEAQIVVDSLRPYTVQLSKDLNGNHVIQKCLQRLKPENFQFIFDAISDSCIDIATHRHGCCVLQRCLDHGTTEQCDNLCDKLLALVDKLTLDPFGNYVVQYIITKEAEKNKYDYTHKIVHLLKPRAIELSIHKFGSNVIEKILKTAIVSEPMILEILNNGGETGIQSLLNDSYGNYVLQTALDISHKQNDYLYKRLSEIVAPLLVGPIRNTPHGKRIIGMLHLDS

B1: Ib_S1_P5E.1_K5.1_C5.1_H5.1_[G2C]_A5.1_F5.1_[A10G]_T5.1 (ssRNA)
RNA: UCUCUUUCUAUUAUUGUCUCUU
B2: Ib_S1_P5E.1_K5.1_C5.1_H5.1_[G2A]_A5.1_F5.1_[A10G]_T5.1 (ssRNA)
RNA: UCUCUUUAUAUUAUUGUCUCUU
B3: Ib_S1_P5E.1_K5.1_C5.1_H5.1_[T1A]_A5.1_F5.1_[A10T]_T5.1 (ssRNA)
RNA: UCUCUUAGUAUUAUUUUCUCUU
B4: Ib_S1_P5E.1_K5.1_C5.1_H5.1_[T1G]_A5.1_F5.1_[A10C]_T5.1 (ssRNA)
RNA: UCUCUUGGUAUUAUUCUCUCUU
B5: Id_ii_S2_P4E.2_K4.1_C4.2_[C-2T]_H4.1_A4.1_F4.1_T4.2 (ssRNA)
RNA: UUUGAUUAAUAUGAUAUCGUUCUUUCUUUUGUAUAUUAGUUUCUUUCUCGAUAUCAUAUUAAUCUUU
B6: Ie_S2_P3E.2_K3.1_C3.2_H3.1_A3.1_F3.1_[+7T]_T3.2 (ssRNA)
RNA: B5 RNA with U28C, G39U, U40A
B7: Id_ii_S2_P4E.2_K4.1_C4.2_[C-2A]_[T-1G]_H4.1_A4.1_F4.1_T4.2_[G10A]_[T11A] (ssRNA)
RNA: B5 RNA with U28A, U29G, G39A, U40A
B8: Id_ii_S2_P4E.2_K4.1_C4.2_[T-1G]_H4.1_A4.1_F4.1_T4.2_[G10A] (ssRNA)
RNA: B5 RNA with U28C, U29G, G39A
B9: Id_ii_S2_P4E.2_K4.1_C4.2_[C-2A]_[T-1C]_H4.1_A4.1_F4.1_T4.2_[G10T]_[T11G] (ssRNA)
RNA: B5 RNA with U28A, U29C, G39U, U40G
B10: Id_ii_S2_P4E.2_K4.1_C4.2_[C-2A]_[T-1A]_H4.1_A4.1_F4.1_T4.2_[G10A]_[T11C] (ssRNA)
RNA: B5 RNA with U28A, U29A, G39A, U40C
B11: Id_ii_S2_P4E.2_K4.1_C4.2_[T-1G]_H4.1_A4.1_F4.1_T4.2_[G10T] (ssRNA)
RNA: B5 RNA with U28C, U29G, G39U
B12: Id_ii_S2_P4E.3_K4.2_C4.2_[C-2G]_[T-1C]_H4.2_A4.1_F4.1_T4.2_[G10C]_[T11C] (ssRNA)
RNA: B5 RNA with U28G, U29C, G31A, G39C, U40C
B13: Id_ii_S2_P4E.2_K4.1_C4.2_[T-1A]_H4.1_A4.1_F4.1_T4.2_[G10A]_[T11G] (ssRNA)
RNA: B5 RNA with U28C, U29A, G39A, U40G
B14: Id_ii_S2_P4E.2_K4.1_C4.2_[C-2A]_[T-1A]_H4.1_A4.1_F4.1_T4.2_[G10A]_[T11G] (ssRNA)
RNA: B5 RNA with U28A, U29A, G39A, U40G
B15: Id_ii_S2_P4E.2_K4.1_C4.2_[C-2A]_[T-1C]_H4.1_A4.1_F4.1_T4.2_[G10A]_[T11A] (ssRNA)
RNA: B5 RNA with U28A, U29C, G39A, U40A
B16: Id_ii_S2_P4E.2_K4.1_C4.2_[C-2A]_[T-1C]_H4.1_A4.1_F4.1_T4.2_[G10T]_[T11A] (ssRNA)
RNA: B5 RNA with U28A, U29C, G39U, U40A
B17: Id_ii_S2_P4E.2_K4.1_C4.2_[C-2A]_[T-1A]_H4.1_A4.1_F4.1_T4.2_[G10C]_[T11C] (ssRNA)
RNA: B5 RNA with U28A, U29A, G39C, U40C
B18: Id_ii_S2_P4E.2_K4.1_C4.2_H4.1_A4.1_F4.1_T4.2_[G10A] (ssRNA)
RNA: B5 RNA with U28C, G39A
B19: Id_ii_S2_P4E.2_K4.1_C4.2_[T-1C]_H4.1_A4.1_F4.1_T4.2_[G10T]_[T11A] (ssRNA)
RNA: B5 RNA with U28C, U29C, G39U, U40A
B20: Id_ii_S2_P4E.2_K4.1_C4.2_[C-2A]_H4.1_A4.1_F4.1_T4.2_[G10A] (ssRNA)
RNA: B5 RNA with U28A, G39A
B21: Id_ii_S2_P4E.2_K4.1_C4.2_[T-1C]_H4.1_A4.1_F4.1_T4.2_[G10A]_[T11G] (ssRNA)
RNA: B5 RNA with U28C, U29C, G39A, U40G
B22: Id_ii_S2_P4E.2_K4.1_C4.2_[C-2A]_[T-1G]_H4.1_A4.1_F4.1_T4.2_[G10T]_[T11G] (ssRNA)
RNA: B5 RNA with U28A, U29G, G39U, U40G
B23: Id_ii_S2_P4E.2_K4.1_C4.2_H4.1_A4.1_F4.1_T4.2_[G10C]_[T11C] (ssRNA)
RNA: B5 RNA with U28C, G39C, U40C
B24: Id_ii_S2_P4E.2_K4.1_C4.2_[C-2A]_[T-1A]_H4.1_A4.1_F4.1_T4.2_[G10A] (ssRNA)
RNA: B5 RNA with U28A, U29A, G39A
B25: Id_ii_S2_P4E.3_K4.2_C4.2_[C-2G]_[T-1C]_H4.2_A4.1_F4.1_T4.2_[G10C]_[T11G] (ssRNA)
RNA: B5 RNA with U28G, U29C, G31A, G39C, U40G
B26: Id_ii_S2_P4E.2_K4.1_C4.2_[T-1G]_H4.1_A4.1_F4.1_T4.2 (ssRNA)
RNA: B5 RNA with U28C, U29G
B27: Id_ii_S2_P4E.2_K4.1_C4.2_[T-1A]_H4.1_A4.1_F4.1_T4.2_[G10C]_[T11C] (ssRNA)
RNA: B5 RNA with U28C, U29A, G39C, U40C
B28: Id_ii_S2_P4E.2_K4.1_C4.2_[C-2A]_H4.1_A4.1_F4.1_T4.2_[G10T]_[T11C] (ssRNA)
RNA: B5 RNA with U28A, G39U, U40C
B29: Id_ii_S2_P4E.2_K4.1_C4.2_[C-2A]_[T-1A]_H4.1_A4.1_F4.1_T4.2_[G10T]_[T11C] (ssRNA)
RNA: B5 RNA with U28A, U29A, G39U, U40C

target: T1, PUF4 RNA-binding domain; experiment: Mg; RNA-MaP; 20 mM Na-HEPES pH 7.4, 30 mM KOAc, 0.75 mM MgCl2, 0.1% Tween-20, 5% glycerol, 0.1 mg/mL BSA, 2 mM DTT; 25 C; 0.0125-409.6 nM protein; conditions: tags: N-His6-TEV cleaved; C-SNAP kept, Cy3B-labelled; label: tethered on chip by stalled RNA polymerase

| Binder | Kd [nM] |
| --- | --- |
| B1 | > 2300 |
| B2 | 242 |
| B3 | > 2300 |
| B4 | > 2300 |
| B5 | 0.456 |
| B6 | 0.308 |
| B7 | 1.64 |
| B8 | 0.316 |
| B9 | 1.95 |
| B10 | 1.96 |
| B11 | 0.195 |
| B12 | 23.6 |
| B13 | 2.6 |
| B14 | 8.86 |
| B15 | 0.702 |
| B16 | 0.628 |
| B17 | 2.15 |
| B18 | 0.317 |
| B19 | 0.342 |
| B20 | 0.782 |
| B21 | 1.63 |
| B22 | 1.63 |
| B23 | 0.362 |
| B24 | 1.93 |
| B25 | 37.1 |
| B26 | 0.296 |
| B27 | 0.746 |
| B28 | 0.401 |
| B29 | 1.1 |

— PMC9352680, “A comprehensive thermodynamic model for RNA binding by the Saccharomyces cerevisiae Pumilio protein PUF4”
